Data reported in patent US20190309066A1 (ARCH ONCOLOGY, published 2019).

Biological target: T1, human CD47 expressed on cells (human, UniProt Q08722 19-292)
T1 construct: also called hCD47; integrin-associated protein
Experiment: flow cytometry on freshly isolated human RBCs, FITC-labelled donkey anti-human antibody, MFI
Procedure: FIG. 7. Binding of VLX9 Humanized mAbs to Human RBCs. […] RBCs were incubated for 60 minutes at 37° C. with various concentrations of VLX9 mAbs, washed and incubated for 1 hr with FITC-labelled donkey anti-human antibody. Cells were washed and antibody binding measured using flow cytometry.
Binding activities of chimeric and humanized VLX4, VLX8, and VLX9 mAbs to human CD47 on hRBCs were also determined using flow cytometry.

T1 sequence (Q08722 other isoform, or with tags, fused parts or gaps limits assumed): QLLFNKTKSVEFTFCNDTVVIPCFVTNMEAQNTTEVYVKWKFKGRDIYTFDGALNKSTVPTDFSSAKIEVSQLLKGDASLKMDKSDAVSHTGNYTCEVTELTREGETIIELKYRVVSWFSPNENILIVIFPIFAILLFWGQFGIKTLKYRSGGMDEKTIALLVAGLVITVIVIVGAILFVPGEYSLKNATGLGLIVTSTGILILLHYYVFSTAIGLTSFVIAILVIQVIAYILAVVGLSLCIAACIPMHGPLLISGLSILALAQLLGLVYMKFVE

B1: VLX9 IgG2 (xi) (antibody)
heavy: QVQLQQFGAELAKPGASVQMSCKASGYTFTNYWIHWVKQRPGQGLEWIGYTDPRTDYTEYNQKFKDKATLAADRSSSTAYMRLSSLTSEDSAVYYCAGGGRVGLGYWGHGSSVTVSSASTKGPSVFPLAPCSRSTSESTAALGCLVKDYFPEPVTVSWNSGALTSGVHTFPAVLQSSGLYSLSSVVTVPSSNFGTQTYTCNVDHKPSNTKVDKTVERKCCVECPPCPAPPVAGPSVFLFPPKPKDTLMISRTPEVTCVVVDVSHEDPEVQFNWYVDGVEVHNAKTKPREEQFNSTFRVVSVLTVVHQDWLNGKEYKCKVSNKGLPAPIEKTISKTKGQPREPQVYTLPPSREEMTKNQVSLTCLVKGFYPSDIAVEWESNGQPENNYKTTPPMLDSDGSFFLYSKLTVDKSRWQQGNVFSCSVMHEALHNHYTQKSLSLSPGK
light: DVFMTQTPLSLPVSLGDQASISCRSSQNIVQSNGNTYLEWYLQKPGQSPKLLIYKVFHRFSGVPDRFSGSGSGTDFTLKISRVEAEDLGVYYCFQGSHVPWTFGGGTKVEIKRTVAAPSVFIFPPSDEQLKSGTASVVCLLNNFYPREAKVQWKVDNALQSGNSQESVTEQDSKDSTYSLSSTLTLSKADYEKHKVYACEVTHQGLSSPVTKSFNRGEC
notes: murine-human chimera; also called VLX9 IgG2 chimera (xi)
- EC50 (read off the curve): ~0.5 nM
